Source: the supplement of paper PMC12855868

B1: library; numbered along this chain (parent)
chain: MAAAGGARLLRAASAVLGGPAGRWLHHAGSRAGSSGLLRNRGPGGSAEASRSLSVSARARSSSEDKITVHFINRDGETLTTKGKVGDSLLDVVVENNLDIDGFGACEGTLACSTCHLIFEDHIYEKLDAITDEENDMLDLAYGLTDRSRLGCQICLTKSMDNMTVRVPETVADARQSIDVGKTS

Variants of: B1
Assay: scaled log2 fold change in cell abundance, elesclomol vs control (0 = silent mean, 1 = nonsense mean) (scaled log2 ratio); higher = higher viability under elesclomol (loss of FDX1 cuproptosis function)
Settings: glucose 10 mM
[1] = with ABC1 FDX1 KO, elesclomol 5 nM, 14 days
[2] = with HEK293T FDX1 KO, elesclomol 40 nM, 11 days
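Also: variant abundance is its share of total variant reads in each endpoint sample, from next-generation sequencing of the integrated ORF PCR-amplified out of genomic DNA.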

## MAAAGGARLLRAASAVLGGPAGRWLHHAGSRAGSSGLLRNRGPGGSAEASRSLSVSARARSSSEDKITVHFINRDGETLTTKGKVGDSLLDVVVENNLDIDGFGACEGTLACSTCHLIFEDHIYEKLDAITDEENDMLDLAYGLTDRSRLGCQICLTKSMDNMTVRVPETVADAFQSIDVGKTS [R175F]
[1]
  scaled log2 fold change: 0.208
[2]
  scaled log2 fold change: 0.0272

## MAAAGGARLLRAASAVLGGPAGRWLHHAGSRAGSSGLLRNRGPGGSAEASRSLSVSARARSSSEDKITVHFINRDGETLTTKGKVGDSLLDVVVENNLDIDGFGACEGTLACSTCHLIFEDHIYEKLDAITDEENDMLDLAYGLTDRSRLGCQICLTKSMDNMTVRVPETVADAKQSIDVGKTS [R175K]
[1]
  scaled log2 fold change: 0.138
[2]
  scaled log2 fold change: -0.161

## MAAAGGARLLRAASAVLGGPAGRWLHHAGSRAGSSGLLRNRGPGGSAEASRSLSVSARARSSSEDKITVHFINRDGETLTTKGKVGDSLLDVVVENNLDIDGFGACEGTLACSTCHLIFEDHIYEKLDAITDEENDMLDLAYGLTDRSRLGCQICLTKSMDNMTVRVPETVADATQSIDVGKTS [R175T]
[1]
  scaled log2 fold change: 0.48
[2]
  scaled log2 fold change: 0.313

## MAAAGGARLLRAASAVLGGPAGRWLHHAGSRAGSSGLLRNRGPGGSAEASRSLSVSARARSSSEDKITVHFINRDGETLTTKGKVGDSLLDVVVENNLDIDGFGACEGTLACSTCHLIFEDHIYEKLDAITDEENDMLDLAYGLTDRSRLGCQICLTKSMDNMTVRVPETVADAGQSIDVGKTS [R175G]
[1]
  scaled log2 fold change: 0.394

## MAAAGGARLLRAASAVLGGPAGRWLHHAGSRAGSSGLLRNRGPGGSAEASRSLSVSARARSSSEDKITVHFINRDGETLTTKGKVGDSLLDVVVENNLDIDGFGACEGTLACSTCHLIFEDHIYEKLDAITDEENDMLDLAYGLTDRSRLGCQICLTKSMDNMTVRVPETVADALQSIDVGKTS [R175L]
[1]
  scaled log2 fold change: 0.518

## MAAAGGARLLRAASAVLGGPAGRWLHHAGSRAGSSGLLRNRGPGGSAEASRSLSVSARARSSSEDKITVHFINRDGETLTTKGKVGDSLLDVVVENNLDIDGFGACEGTLACSTCHLIFEDHIYEKLDAITDEENDMLDLAYGLTDRSRLGCQICLTKSMDNMTVRVPETVADAQQSIDVGKTS [R175Q]
[1]
  scaled log2 fold change: -1.39
[2]
  scaled log2 fold change: -0.894

## MAAAGGARLLRAASAVLGGPAGRWLHHAGSRAGSSGLLRNRGPGGSAEASRSLSVSARARSSSEDKITVHFINRDGETLTTKGKVGDSLLDVVVENNLDIDGFGACEGTLACSTCHLIFEDHIYEKLDAITDEENDMLDLAYGLTDRSRLGCQICLTKSMDNMTVRVPETVADAPQSIDVGKTS [R175P]
[1]
  scaled log2 fold change: -0.117
[2]
  scaled log2 fold change: 0.128

## MAAAGGARLLRAASAVLGGPAGRWLHHAGSRAGSSGLLRNRGPGGSAEASRSLSVSARARSSSEDKITVHFINRDGETLTTKGKVGDSLLDVVVENNLDIDGFGACEGTLACSTCHLIFEDHIYEKLDAITDEENDMLDLAYGLTDRSRLGCQICLTKSMDNMTVRVPETVADAMQSIDVGKTS [R175M]
[1]
  scaled log2 fold change: -0.223
[2]
  scaled log2 fold change: 0.0945

## MAAAGGARLLRAASAVLGGPAGRWLHHAGSRAGSSGLLRNRGPGGSAEASRSLSVSARARSSSEDKITVHFINRDGETLTTKGKVGDSLLDVVVENNLDIDGFGACEGTLACSTCHLIFEDHIYEKLDAITDEENDMLDLAYGLTDRSRLGCQICLTKSMDNMTVRVPETVADAAQSIDVGKTS [R175A]
[1]
  scaled log2 fold change: 0.455
[2]
  scaled log2 fold change: -0.138

## MAAAGGARLLRAASAVLGGPAGRWLHHAGSRAGSSGLLRNRGPGGSAEASRSLSVSARARSSSEDKITVHFINRDGETLTTKGKVGDSLLDVVVENNLDIDGFGACEGTLACSTCHLIFEDHIYEKLDAITDEENDMLDLAYGLTDRSRLGCQICLTKSMDNMTVRVPETVADAIQSIDVGKTS [R175I]
[1]
  scaled log2 fold change: -0.385
[2]
  scaled log2 fold change: 0.157

## MAAAGGARLLRAASAVLGGPAGRWLHHAGSRAGSSGLLRNRGPGGSAEASRSLSVSARARSSSEDKITVHFINRDGETLTTKGKVGDSLLDVVVENNLDIDGFGACEGTLACSTCHLIFEDHIYEKLDAITDEENDMLDLAYGLTDRSRLGCQICLTKSMDNMTVRVPETVADACQSIDVGKTS [R175C]
[1]
  scaled log2 fold change: -0.0756
[2]
  scaled log2 fold change: 0.45

## MAAAGGARLLRAASAVLGGPAGRWLHHAGSRAGSSGLLRNRGPGGSAEASRSLSVSARARSSSEDKITVHFINRDGETLTTKGKVGDSLLDVVVENNLDIDGFGACEGTLACSTCHLIFEDHIYEKLDAITDEENDMLDLAYGLTDRSRLGCQICLTKSMDNMTVRVPETVADANQSIDVGKTS [R175N]
[1]
  scaled log2 fold change: 0.0623
[2]
  scaled log2 fold change: 0.495

## MAAAGGARLLRAASAVLGGPAGRWLHHAGSRAGSSGLLRNRGPGGSAEASRSLSVSARARSSSEDKITVHFINRDGETLTTKGKVGDSLLDVVVENNLDIDGFGACEGTLACSTCHLIFEDHIYEKLDAITDEENDMLDLAYGLTDRSRLGCQICLTKSMDNMTVRVPETVADAHQSIDVGKTS [R175H]
[1]
  scaled log2 fold change: 0.468
[2]
  scaled log2 fold change: -0.908

## MAAAGGARLLRAASAVLGGPAGRWLHHAGSRAGSSGLLRNRGPGGSAEASRSLSVSARARSSSEDKITVHFINRDGETLTTKGKVGDSLLDVVVENNLDIDGFGACEGTLACSTCHLIFEDHIYEKLDAITDEENDMLDLAYGLTDRSRLGCQICLTKSMDNMTVRVPETVADADQSIDVGKTS [R175D]
[1]
  scaled log2 fold change: 0.148
[2]
  scaled log2 fold change: 1.25

## MAAAGGARLLRAASAVLGGPAGRWLHHAGSRAGSSGLLRNRGPGGSAEASRSLSVSARARSSSEDKITVHFINRDGETLTTKGKVGDSLLDVVVENNLDIDGFGACEGTLACSTCHLIFEDHIYEKLDAITDEENDMLDLAYGLTDRSRLGCQICLTKSMDNMTVRVPETVADASQSIDVGKTS [R175S]
[1]
  scaled log2 fold change: 0.343
[2]
  scaled log2 fold change: 0.224

## MAAAGGARLLRAASAVLGGPAGRWLHHAGSRAGSSGLLRNRGPGGSAEASRSLSVSARARSSSEDKITVHFINRDGETLTTKGKVGDSLLDVVVENNLDIDGFGACEGTLACSTCHLIFEDHIYEKLDAITDEENDMLDLAYGLTDRSRLGCQICLTKSMDNMTVRVPETVADAEQSIDVGKTS [R175E]
[1]
  scaled log2 fold change: 0.417
[2]
  scaled log2 fold change: 0.643

## MAAAGGARLLRAASAVLGGPAGRWLHHAGSRAGSSGLLRNRGPGGSAEASRSLSVSARARSSSEDKITVHFINRDGETLTTKGKVGDSLLDVVVENNLDIDGFGACEGTLACSTCHLIFEDHIYEKLDAITDEENDMLDLAYGLTDRSRLGCQICLTKSMDNMTVRVPETVADYRQSIDVGKTS [A174Y]
[1]
  scaled log2 fold change: 0.11
[2]
  scaled log2 fold change: 0.358
